Measurements as given in FireProtDB (doi:10.1021/bi300982v).

Conditions: Thermus thermophilus, pH 7, sodium phosphate 50 mM, transition: 2, reversible: yes, whole UniProt chain shown; for denaturant midpoint (higher = more stable): 25 °C, GdnHCl

B1: Cytochrome c-552 wild type, P04164 (protein)
chain: QADGAKIYAQCAGCHQQNGQGIPGAFPPLAGHVAEILAKEGGREYLILVLLYGLQGQIEVKGMKYNGVMSSFAQLKDEEIAAVLNHIATAWGDAKKVKGFKPFTAEEVKKLRAKKLTPQQVLAERKKLGLK
In the case of B1, the “denaturant midpoint (higher = more stable)” value (from here on “denaturant midpoint”) (absorbance) is reported as 3.6 M, the “denaturant midpoint” value (far-UV-CD) is reported as 4.1 M and the “denaturant midpoint” value (heme-CD) is reported as 3.4 M. The Tm (Thermal, CD) was 95 °C, the “heat capacity change of unfolding” value (Thermal, CD) was 0.31 kcal/mol/K and the “unfolding enthalpy (calorimetric)” value (Thermal, CD) was 127 kJ/mol. For the same protein, the unfolding free energy (Thermal, CD) was 13 kJ/mol.
